Laboratory results reported in publication PMC6579465, “The priming factor CAPS1 regulates dense-core vesicle acidification by interacting with rabconnectin3β/WDR7 in neuroendocrine cells” (The Journal of Biological Chemistry, 2019).

Target: T1, CAPS1 (calcium-dependent activator protein for secretion, CADPS) (rat (endogenous in rat brain), UniProt Q62717 1-1289)
T1 construct: CAPS1 (CADPS), endogenous protein of rat brain; Precipitated with a rabbit polyclonal CAPS peptide antibody and eluted with the 21-mer peptide immunogen; source: endogenous, rat brain crude synaptosomal membrane fraction, solubilized in 1% Triton X-100
Assay: affinity purification with mass spectrometry; CAPS1 immunoprecipitate of detergent extract resolved by SDS-PAGE; Coomassie-stained bands seen in the CAPS1 but not the control immunoprecipitate excised, in-gel digests, LC-MS/MS
Conditions: partners not purified

T1 sequence (Q62717 whole entry): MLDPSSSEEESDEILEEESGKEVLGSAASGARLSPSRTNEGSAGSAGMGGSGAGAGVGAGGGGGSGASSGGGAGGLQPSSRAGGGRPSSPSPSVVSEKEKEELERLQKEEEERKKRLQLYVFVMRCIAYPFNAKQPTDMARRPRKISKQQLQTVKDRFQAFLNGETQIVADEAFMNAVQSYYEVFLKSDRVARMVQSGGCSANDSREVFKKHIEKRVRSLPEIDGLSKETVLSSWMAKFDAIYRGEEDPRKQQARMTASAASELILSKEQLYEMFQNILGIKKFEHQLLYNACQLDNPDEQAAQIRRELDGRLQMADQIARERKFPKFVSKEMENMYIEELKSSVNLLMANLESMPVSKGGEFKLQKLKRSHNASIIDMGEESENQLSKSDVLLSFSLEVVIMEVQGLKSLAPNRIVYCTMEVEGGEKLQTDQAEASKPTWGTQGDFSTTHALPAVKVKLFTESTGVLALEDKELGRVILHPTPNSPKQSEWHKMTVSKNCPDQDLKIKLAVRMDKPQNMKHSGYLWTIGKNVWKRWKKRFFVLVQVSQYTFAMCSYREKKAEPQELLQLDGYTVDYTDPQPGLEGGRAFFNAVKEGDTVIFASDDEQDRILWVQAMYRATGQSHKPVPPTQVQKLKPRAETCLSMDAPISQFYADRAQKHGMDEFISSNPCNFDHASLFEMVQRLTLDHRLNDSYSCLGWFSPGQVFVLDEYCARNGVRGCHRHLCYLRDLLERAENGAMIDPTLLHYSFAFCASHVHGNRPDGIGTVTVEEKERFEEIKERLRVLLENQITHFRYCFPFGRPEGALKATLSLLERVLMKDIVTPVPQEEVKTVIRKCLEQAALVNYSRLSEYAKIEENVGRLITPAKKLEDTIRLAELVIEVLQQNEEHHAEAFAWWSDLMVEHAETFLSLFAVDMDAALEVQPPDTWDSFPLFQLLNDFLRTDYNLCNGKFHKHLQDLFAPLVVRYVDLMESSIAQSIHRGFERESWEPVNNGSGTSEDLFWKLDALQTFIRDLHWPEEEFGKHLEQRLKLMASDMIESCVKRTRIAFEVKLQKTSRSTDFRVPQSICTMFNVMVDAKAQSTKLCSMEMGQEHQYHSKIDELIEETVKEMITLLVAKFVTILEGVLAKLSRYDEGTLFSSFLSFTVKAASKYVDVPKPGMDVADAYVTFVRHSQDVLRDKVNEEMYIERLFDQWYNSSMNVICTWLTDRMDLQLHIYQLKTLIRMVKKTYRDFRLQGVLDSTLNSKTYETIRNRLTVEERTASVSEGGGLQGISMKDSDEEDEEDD

stoichiometry relative to CAPS1 (bands of the immunoprecipitate): 0.167 Rbcn3 subunit : CAPS1
B1: Rabconnectin3β (Rbcn3β) / WD repeat domain 7 (WDR7) (natural protein, rat (endogenous in rat brain), UniProt Q9ERH3 1-1488, looked up)
chain: MAGNSLVLPIVLWGRKAPTHCISSILLTDDGGTIVTGCHDGQICLWDLSEELEVNPRALLFGHTAAITCLSKACASGDKQYTVSASANGEMCLWDVNDGRCIEFTKLACTHTGIQFYQFSVGNQREGRLLCHGHYPEILVVDATSLEVLYSLVSKISPDWISSMSIIRSHRTQEDTVVALSVTGILKVWIVTSEISGLQDTEPIFEEESKPIYCQNCQSLSFCAFTQRSLLVVCSKYWRVFDAGDYSLLCSGPSEDGQTWTGGDFVSADKVIIWTENGQSYIYKLPASCLPASDSFRSDVGKAVENLIPPVQHSLLDQKDRELVICPPVTRFFYGCKEYLHKLLIQGDSSGRLSIWNIADIADKQEANEGLKTTTCISLQDAFDKLKPCPAGIIDQLSVIPNSNEPLKVTASVYIPAHGRLVCGREDGSIIIVPATQTAIVQLLQGEHMLRRGWPPHRTLRGHRNKVTCLLYPHQVSARYDQRYLISGGVDFSVIIWDIFSGEMKHIFCVHGGEITQLLVPPENCSARVQHCVCSVASDHSVGLLSLREKKCIMLASRHLFPIQVIKWRPSDDYLVVGCTDGSVCVWQMDTGALDRCAMGITAVEILNACDEAVPAAVDSLSHPAVNLKQAMTRRSLAALKNMAHHKLQTLATNLLASEASDKGNLPKYSHNSLMVQAIKTNLTDPDIHVLFFDVEALIIQLLTEEASRPNTALISPENLQKASGSSDKGGSFLTGKRAAVLFQQVKETIKENIKEHLLDEEEDEEEVMRQRREESDPEYRASKSKPLTLLEYNLTMDTAKLFMSCLHAWGLNEVLDEVCLDRLGMLKPHCTVSFGLLSRGGHMSLMLPGYNQAAGKLLQAKAEAGRKGPATESVGKGTYTVSRAVTTQHLLSIISLANTLMSMTNATFIGDHMKKGPTRPPRPGTPDLSKARDSPPASSNIVQGQIKQAAAPVSARSAADHSGSASASPALRTCFLVNEGWSQLAAMHCVMLPDLLGLGKFRPPLLEMLARRWQDRCLEVREAAQALLLAELRRIEQAGRKETIDTWAPYLPQYMDHVISPGVTAEAMQTMAAAPDASGPEAKVQEEEHDLVDDDITTGCLSSVPQMKKMSTSYEERRKQATAIVLLGVIGAEFGAEIEPPKLLTRPRSSSQIPEGFGLTSGGSNYSLARHTCKALTFLLLQPPSPKLPPHSTIRRTAIDLIGRGFTVWEPYMDVSAVLMGLLELCADAEKQLANITMGLPLSPAADSARSARHALSLIATARPPAFITTIAKEVHRHTALAANTQSQQSIHTTTLARAKGEILRVIEILIEKMPTDVVDLLVEVMDIIMYCLEGSLVKKKGLQECFPAICRFYMVSYYERSHRIAVGARHGSVALYDIRTGKCQTIHGHKGPITAVSFAPDGRYLATYSNTDSHISFWQMNTSLLGSIGMLNSAPQLRCIKTYQVPPVQPASPGSHNALRLARLIWTSNRNVILMAHDGKEHRFMV
notes: Rabconnectin3β / WDR7, endogenous protein of rat brain; also called Rabcn3β; Rbcn3β/WDR7; source: endogenous, rat brain crude synaptosomal membrane fraction, solubilized in 1% Triton X-100
